Reference: the DeepSol protein solubility set

Test: soluble on expression in E. coli; label from the status in PepcDB or PDB records

Soluble on expression in E. coli, not soluble:
MGSDKIHHHHHHMKIAISGKGGVGKTTLAATLAYLFARDGYRVTAIDCDADINLPSALGVKEKPKPLSELHEIIEKRVVGPMGTYKLNPKVDDVFEEYSVYNEDGVRVLVLGTIEKGGEGCFCPENAFLRAILRHAIFKREDVLILDMEAGIEHLGRGTARGVDLLIAVVEPGTRAVETLERIEKLGRDIGIERIAVVVNKFIESERARELISGIKYPILGVIHYDQCFVRADLENVPPYTVCDLKPFEEIKRRIEEFVQ
MHPTGPQLGPDVLFRESKMKVTLTFNEQRRAAYRQQGLWGDASLADYWQQTARAMPDKIAVVDNHGASYTYSALDHAASCLANWMLAKGIESGDRIAFQLPGWCEFTVIYLACLKIGAVSVPLLPSWREAELVWVLNKCQAKMFFAPTLFKQTRPVDLILPLQNQLPQLQQIVGVDKLAPATSSLSLSQIIADNIPLTTAITTHGDELAAVLFTSGTEGLPKGVMLTHNNILASERAYCARLNLTWLDVFMMPAPLGHATGFLHGVTAPFLIGARSVLLDIFTPDACLALLEQQRCTCMLGATPFVYDLLNLLEKQPADLSALRFFLCGGTTIPKKVARECQQRSIKLLSVYGSTESSPHAVVNLDNSLSRFMHTDGYAAAGVEIKVVDDARKTLPPGCEGEEASRGPNVFMGYFDEPELTARALDEEGWYYSGDLCRMDEAGYIKITGRKKDIIVRGGENISSREVEDILLQHPKIHDACVVAMPDERLGERSCAYVVLKAPHHSLSLEEMAAFFSRKRVAKYKYPEHIVVIEKLPRTASDKIQKFLLRKDIIRRLTQDVCEEIE
MNKMLYGWLLAACCGLPPAFAGDSVDVLAQPALHGPQALRAVLQDVARADARLVAVGERGVVLLSDDNGATWRQATAVPVGVSLTAVQFIDARNGWAVGHAGVVLHSQDGGEHWSVQLDGKRAAALEVQAAEAAADERRLAAAQRLLADGADKPLLALNFTDARNGLVVGAYGVAMRTDDGGRSWQSEIGRLPNGRGLHLYALARQGNQVYIAGEQGLLLRSRDGGEHYEALHGPYDGSYFAATVLPDGRLLLGGLRGSLFASDDGGDSFQALANPTPASINGLRVAGGQLLLANQAGMLLRSGLGAFAAQPVAVSDGLPLTAATTAADGSIVAVGMAGARRLEPSSLEHHHHHH
RSLTMTLEELMNAPAPASRWVLERDCAETGLDPADIRAEMLRRIGEMRSSVERGLQSDARSITGMVGWNAKGLWDAPDVLGAPLLKRVQAYAMAVNEENARMGRIVAAPTAGSAGTIPGALLGVADHLGLSDEQLVDPMILAAGVGKAISKRMFISGAAGGCQAE
MDTTEFDEIRPYNDEELPQIFEELIADPAFQKAATDAIPNVPFELLAQKIRACKSKLDFQETFCYGILWKIAADHTDGLTLDHTAVPDKSKAYTYVSNHRDIILDSGFLSILLIDQGMDTVEIAIGDNLLVYPWIKKLVRVNKSFIVQRALTMRQMLESSARMSRYMHYTINEKNQSIWIAQREGRAKDSNDRTQDSVLKMLAMGGEGDLIDRLMEMNIAPLAISYEYDPCDFLKAQEFQLKRDIEGYKKTTQDDLISMQTGLFGYKGKVHFQTAPCINDRLAQLDRSLPKQELFSSISACIDQRIHSNYRIYSGNYVAYDLLKGTSEFAGHYTPEEKQRFVTYIEQQLGKIKIPNKDEDFLRGKLLLMYANPLVNYLAACQ
MYTFDTTDHKSPCCNFQWYIFRKQGESRIITCELFGVIVSLENRWDWLEFMIDDSLQLTAFRCPKRDKLGMETLLQLGDVAQVTGNWKLSNGAFLNATKIAIHNNPDVECKYWLQQIQKYKSKVCELEIPSDWIRRQQRAHNLKTDAVLSFSAQVSTAAATCWKLWKKHFNQGGKISLQRLWEVIQRENCPKMQELSSCRRNQIVQLLIHLGYLIPLSKEPETYVLLIDDILDKQVMQIFNQNIASKTLSLREVAYRLEEYFHVEEISLERVEESILRLAYKEKVEQV
MGSDKIHHHHHHLIPFFLDLVSRTDEARRAFELHPVVTHAAANGMTLQRYRRLLLELYHVVWHFNTVSAAGASRLQDTHKQVRYFLYEHMHEESGHEEWVLADLEQMGVTRDIALNHRPSHYTLALVGYYYYAADRKHPASVLGMLYALEVIASVYGGTLTSAVKESLLLDDERGVSFISSHATLDAEHMADLKTVLDTIEDDEAKDAIEEAVLLTFNHLTHIMVEAHLEEGDISGAPAVNAEHFAISAEKAAA
MGSDKIHHHHHHMPENLIIPSVDLRIGALEEYNRRQKEKAHHRQKGPKPRPCITLSREFGCEGYPVAESLLKLMPEQTGDQWVLVDKDVLDEVARRHHVSREILEALGTKNRILSQVLATFSERWKTDHEYFELLCSHIVSLAEQGNVIIVGLGGAIITHHREHCYDFRIFGSREFKIGSICQRMNLPPDKAADLIEKQQAQIDNFTREFLFEDEANPAIYDLLFNNDRMCPETMARTIADYVAGRIAAGTADKRHV
MNAHDEVQRTLNPTCTGTSVIALQYKTGVVVLTDRVVSYGKMARYKNVSRQYKVNDNVLIAFGGDHADFHWLQNVIERQVLLWKRFDQDIGPKALHGYLTSLLYAKRCKMNPVWNTLVVAGVEEEEKNNKETSTPFIGVITQKGCAYQVKHIATGLGAFLLNQAVEDEWRKKGEDLSREEAEAVLRKSLELTLYHDCVADNEFEIGRVDATEGVVLGKEEKIIGDWSIAETNCQYE
MGSDKIHHHHHHMNVPKAGKVICAGLGPGDPELMSVKSWRALQGATHVAYFRKAGRAGQARAIVEGLLPAGVTEYPMEYPVTTEIHFSDPEYNRQLAAFYDQWADTLAEIAATQTVVVLCEGDPFLYGSFMHLHTRLEGRAEVEIIPGITGMSGCWTATGQPITWGDDVLTVAMATLSEDELTQRIRQTDALVVMKIGRNLPKLRRALEAAGRLQDAWLVERGTMPAQTVQKLTDVDGEVPYFSIVILHGEGRRP

Soluble on expression in E. coli, soluble:
MSLERIEPGPDTIRVLLTTDNHVGAFENDPIRGDDAWKTFDEITTIAKDKDVDMIIQGGDLFHINKPTKKSMYHVMKSLRSNCMGDRPCELELLSDPAQSLNNGFDEINYEDPNLNISIPVFAISGNHDDATGESLLLALDVLAVTGLINNFGKVKNTEAITVSPILLQKGQTKLALYGMSNVRDERLHRLFRDGGVKFQRPNIQTEDWFNLFVIHQNHAAHTYTSSIPESFLPNFLDFILWGHEHECIPYPVHNPETTFDVLQAGSSVATSLAEGEVADKKIFILNIKGKDYSIEPVELKTVRPFVLREIILLKTDLIPGAASKADVIAYLTDEVEKSIERANKQFSEGHHHHHH
MEQLTKCEVFRELKDLKGYGGVSLPEWVCTTFHTSGYDTQAIVQNNDSTEYGLFQINNKIWCKDDQNPHSSNICNISCDKFLDDDLTDDIVCVKKILDKVGINYWLAHKALCSEKLDQWLCEKL
MSLADNRDELKETLRTLLRDNPDLVLEVLREHSETVLEIAQQGANQRRRKVLVAQWKTDLEDPKKVNLADRPVRGEANAPVTVVAYSDFTCPYCQQAAGTVEMLLANYKGKVRYVFKQMPLETHENARTASNYYVAASLQDPAKAWKLYEAVFADRDRLVTEGEPFLKKVAQEAGLDMQRLATDIKGRKVKALIEEDMAEARKLGVQGTPYFLVNDLVVRGALPLDLFSDAVDMALEKAGAKEGHHHHHH
MWEVIIMKTYIGKIHLKWCKNCNVPLLGRVCEVCGSKAEEVKLTPPGDPRLGFQYDMDFINKILEEEFGAKNVLNGKIILLNKIPGNEEAYEIIVDGEVKYLIYFDEDKEKWKVKLKLNGAKDLMEKGAYKKIIKIKNDVVEFLKNRKGSVLRPGIVEFTDDIEEKDDVIIVDENDRVVGVGLAVVSSEDIKNMEKGKVVKVRFFIKDNEDYKPGKIYDNLEEAFDLMVRANEGVIDNYERNAIGFIKNTYEKIKKPVMVAFSGGKDSLVTLILTLKALGKDIDVVFIDTGLEFEETLKNVEDVERHYGIKIIRLRGENFWEKVKEYGIPARDYRWCSEICKLEPLKKFIEENYEDDVLSFVGIRKYESFNRATKKRIHRNTYIKKQINALPIFHWSSLHVWIYLLREKAPYNKLYEKGFDRIGCFMCPAMEMGEMNKIKREFPKLWEKWENVLREYAEKHNLGEGWIKKGLWRWKHKRQ
PSSAVGSGSEGFIVRLPAALLFKEGGIEVENSDGFLFVKRMAEIVNRLPKDVHVEVRGHTDTLPLPAQAPQDKLELTAKRALSVSKLLVKEGIDPKRITTVGRGDQDPLTHARTPEAQESNRRVDIYLYPKE
MTDTRASAHLYPAHDLAVCTDAGSAVERITAIYDRSAQAIRARFHAFARGEALDDDTPACYPYLGITVDPKTLVSDARPSWGTVAYPGVYGTTLTRPDLFREYYRVQIERLLHYHNSPVVVGVSNRPIPLPFVVEASTIDITPEQARALGGAFPLPDLAQIDDAIANGTYRPADNEPQPLSMFTAERVDLALQRLYHYTATHPKHFQRFVLFTNYQRYVDEFAALGRKLMEEGNDEGYVRFVEPGDTVHELGTPAPDDSHRIKGLPQMPAYHLVREDRLGVTLVNIGVGPSNAKTITDHLAVLRPHCWMMIGHCGGLRRSQQLGDYVLAHAYVRDDHVLDQDLPPWVPVPPIAEIQVALQEAVARITGLSGSDMKSRMRTGTVVSTDDRNWELKYQALYTRFNQSRAIAIDMESATIAANGFRLRVPYGTLLCVSDKPLHGELKLRGMANLFYRQRVSQHLAIGMEAVRLLRENGVETLHSRKLRSFDEPAFR
MSLESKPVVFHDVPQDHWAFEAISDLGNAGIIAGYGHGIFGLGDDVTREQVAALIYRSMEGIEEKEEYENPYGDLDEHGSTLFLEEILALTEMGIFQGDEQGNFRPKDTLTRAEMAQVIATAFDLEVKAPHSFNDVPANSWAKDAISAVQSNQIAAGIGQGKFAPEMKVTREQYAQFLYNALTNEHAEEGHHHHHH
AIAADGQMPFSCHYPSRLRRDPFRDSPLSSRLLDDGFGMDPFPDDLTASWPDWALPRLSSAWPGTLRSGMVPRGPTATARFGVPAEGRTPPPFPGEPWKVCVNVHSFKPEELMVKTKDGYVEVSGKHEEKQQEGGIVSKNFTKKIQLPAEVDPVTVFASLSPEGLLIIEAPQVPPYSTFGESSFNNELPQDSQEVTCT
MSLYELTEDFKLRKITKYELDGIDEREDLLVIPPSSKAGPCGNACLFCYLLQNPPEMIYKVPRHDTLNDPDLENRIRYARKHYDLWIRVTDTSGNIKFDENRIKSLYDAGLDEIQISVHTTKKDVRARLMRNRQAGKLIDLLPLVAKHFRTIADIILTPGFNVEDIGEIIEDLDSMGVHEVRLFPVGVTRYNKFGVRPLTREELSYVKGIALEKDKELAIKVVIPPIFLALLGEFTTGLEPFDIEPDFPTYIFTGELAYQEMKRLFPRVNVIMVKNEFFGGNIGSAGLLTGRDILREVEKLPEVDLGLIILPELMFYGDMTLDGWRRQELFSKILIEKGYIVETALEPTEIPRVIEKVTLEGHHHHHH
